Measured values taken from the supplement of paper PMC9112550, “Optimization of the antimicrobial peptide Bac7 by deep mutational scanning” (BMC Biology, 2022).

Test system: Escherichia coli TOP10
Test: shrunken log2 fold change of peptide-encoding DNA abundance (4.5 h post-induction vs induction); higher = less antimicrobial activity (less host growth inhibition)
Conditions: time post-induction: 4.5 h; library: site-saturation at positions 5, 18, 19, 20
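Also: peptides expressed intracellularly from a pBAD plasmid library in pooled LB shake-flask culture, induced with 0.3% L-arabinose, DNA abundance read by NGS, three biological replicates, DESeq2 with apeglm shrinkage.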

Sequence	shrunken log2 fold change
RRIRLRPPRLPRPRPRPWNCPRP	-0.493
RRIRMRPPRLPRPRPRPFKFPRP	-0.012
RRIRERPPRLPRPRPRPMPMPRP	-0.0464
RRIRIRPPRLPRPRPRPEMKPRP	-0.037
RRIRERPPRLPRPRPRPWKFPRP	-0.301
RRIRRRPPRLPRPRPRPKLAPRP	0.333
RRIRERPPRLPRPRPRPYLIPRP	-0.626
RRIRARPPRLPRPRPRPGWLPRP	0.285
RRIRCRPPRLPRPRPRPVFHPRP	-0.262
RRIRRRPPRLPRPRPRPCYAPRP	1.3
RRIRCRPPRLPRPRPRPEEMPRP	0.028
RRIRDRPPRLPRPRPRPHIHPRP	-0.342
RRIRRRPPRLPRPRPRPGSKPRP	-0.0919
RRIRKRPPRLPRPRPRPKKRPRP	1.09
RRIRGRPPRLPRPRPRPLDTPRP	0.963
RRIRNRPPRLPRPRPRPFNAPRP	-0.257
RRIRFRPPRLPRPRPRPSQKPRP	-0.0426
RRIRRRPPRLPRPRPRPVSRPRP	-0.0137
RRIRARPPRLPRPRPRPRVQPRP	0.359
RRIRKRPPRLPRPRPRPREDPRP	0.346
RRIRCRPPRLPRPRPRPGEFPRP	-0.179
RRIRRRPPRLPRPRPRPTDPPRP	0.246
RRIRFRPPRLPRPRPRPNIVPRP	-0.199
RRIRIRPPRLPRPRPRPLVMPRP	-1.56
RRIRRRPPRLPRPRPRPASVPRP	0.267

Sequence	shrunken log2 fold change
RRIRYRPPRLPRPRPRPKWWPRP	-0.0129
RRIRWRPPRLPRPRPRPTSAPRP	0.389
RRIRQRPPRLPRPRPRPELRPRP	-0.043
RRIRLRPPRLPRPRPRPKYSPRP	-0.622
RRIRNRPPRLPRPRPRPHPCPRP	0.231
RRIRHRPPRLPRPRPRPEFIPRP	-0.0433
RRIRPRPPRLPRPRPRPDACPRP	0.183
RRIRWRPPRLPRPRPRPWLTPRP	-0.0976
RRIRVRPPRLPRPRPRPFWKPRP	0.0154
RRIRQRPPRLPRPRPRPRDPPRP	0.604
RRIRVRPPRLPRPRPRPWYQPRP	-0.197
RRIRERPPRLPRPRPRPHITPRP	-0.99
RRIRKRPPRLPRPRPRPPIWPRP	0.106
RRIRCRPPRLPRPRPRPTFLPRP	-0.475
RRIRDRPPRLPRPRPRPLQQPRP	0.104
RRIRYRPPRLPRPRPRPDDLPRP	-0.0432
RRIRKRPPRLPRPRPRPLYKPRP	-0.112
RRIRNRPPRLPRPRPRPPFNPRP	-0.299
RRIRQRPPRLPRPRPRPEMDPRP	0.231
RRIRRRPPRLPRPRPRPHNMPRP	-0.697
RRIRKRPPRLPRPRPRPMTQPRP	-0.0547
RRIRPRPPRLPRPRPRPNHLPRP	-0.601
RRIRLRPPRLPRPRPRPANQPRP	0.137
RRIRGRPPRLPRPRPRPPHRPRP	0.81
RRIRWRPPRLPRPRPRPNKKPRP	-0.076

Sequence	shrunken log2 fold change
RRIRERPPRLPRPRPRPWMSPRP	-0.0212
RRIRNRPPRLPRPRPRPLCLPRP	-0.311
RRIRYRPPRLPRPRPRPQACPRP	0.00187
RRIRCRPPRLPRPRPRPNCSPRP	0.0117
RRIRRRPPRLPRPRPRPKQIPRP	0.289
RRIRCRPPRLPRPRPRPLYTPRP	-0.765
RRIRRRPPRLPRPRPRPSRTPRP	0.141
RRIRVRPPRLPRPRPRPLRDPRP	0.725
RRIRWRPPRLPRPRPRPQQPPRP	0.383
RRIRGRPPRLPRPRPRPTVEPRP	1.27
RRIRRRPPRLPRPRPRPWHRPRP	-0.113
RRIRMRPPRLPRPRPRPYDRPRP	0.043
RRIRVRPPRLPRPRPRPGWMPRP	0.159
RRIRVRPPRLPRPRPRPDRKPRP	0.0279
RRIRFRPPRLPRPRPRPPELPRP	0.106
RRIRLRPPRLPRPRPRPRAKPRP	0.139
RRIRARPPRLPRPRPRPGKYPRP	-0.152
RRIRCRPPRLPRPRPRPYAWPRP	-0.553
RRIRTRPPRLPRPRPRPDYCPRP	-0.125
RRIRFRPPRLPRPRPRPSWRPRP	0.167
RRIRHRPPRLPRPRPRPKPQPRP	0.269
RRIRVRPPRLPRPRPRPHPKPRP	0.0188
RRIRRRPPRLPRPRPRPRRSPRP	0.516
RRIRCRPPRLPRPRPRPLIIPRP	-1.07
RRIRHRPPRLPRPRPRPQHPPRP	-0.396

Sequence	shrunken log2 fold change
RRIRLRPPRLPRPRPRPFFKPRP	-0.169
RRIRARPPRLPRPRPRPQCGPRP	0.436
RRIRERPPRLPRPRPRPYMGPRP	-1.01
RRIRNRPPRLPRPRPRPCLMPRP	-0.299
RRIRLRPPRLPRPRPRPFLLPRP	-0.47
RRIRTRPPRLPRPRPRPGMWPRP	0.158
RRIRKRPPRLPRPRPRPLMTPRP	0.175
RRIRPRPPRLPRPRPRPSQWPRP	-0.0044
RRIRLRPPRLPRPRPRPLTSPRP	-0.179
RRIRLRPPRLPRPRPRPMKNPRP	-0.303
RRIRNRPPRLPRPRPRPGQAPRP	0.0345
RRIRKRPPRLPRPRPRPCRWPRP	-0.0708
RRIRYRPPRLPRPRPRPKFTPRP	-0.328
RRIRQRPPRLPRPRPRPIFTPRP	-0.123
RRIRGRPPRLPRPRPRPQQTPRP	1.6
RRIRQRPPRLPRPRPRPGVKPRP	0.0204
RRIRGRPPRLPRPRPRPKNFPRP	0.0583
RRIRRRPPRLPRPRPRPYNMPRP	-0.499
RRIRFRPPRLPRPRPRPKKWPRP	0.187
RRIRDRPPRLPRPRPRPKWEPRP	0.104
RRIRARPPRLPRPRPRPDIKPRP	-0.026
RRIRRRPPRLPRPRPRPANLPRP	0.0328
RRIRKRPPRLPRPRPRPANGPRP	0.566
RRIRGRPPRLPRPRPRPMKYPRP	0.0733
RRIRIRPPRLPRPRPRPRTSPRP	0.0339

Sequence	shrunken log2 fold change
RRIRCRPPRLPRPRPRPEDLPRP	0.117
RRIRMRPPRLPRPRPRPPYMPRP	-0.135
RRIRCRPPRLPRPRPRPINRPRP	0.0376
RRIRARPPRLPRPRPRPAQYPRP	0.175
RRIRVRPPRLPRPRPRPMYPPRP	-0.413
RRIRWRPPRLPRPRPRPWHVPRP	-0.201
RRIRFRPPRLPRPRPRPIQDPRP	-0.025
RRIRHRPPRLPRPRPRPNTGPRP	0.121
RRIRDRPPRLPRPRPRPTQWPRP	0.0594
RRIRERPPRLPRPRPRPCANPRP	-0.158
RRIRQRPPRLPRPRPRPAVYPRP	-0.15
RRIRLRPPRLPRPRPRPVFKPRP	-0.134
RRIRTRPPRLPRPRPRPTQKPRP	-0.0787
RRIRQRPPRLPRPRPRPSAPPRP	0.175
RRIRYRPPRLPRPRPRPLEGPRP	0.0645
RRIRIRPPRLPRPRPRPEHHPRP	-0.206
RRIRGRPPRLPRPRPRPYFEPRP	-0.123
RRIRWRPPRLPRPRPRPCCHPRP	-0.169
RRIRFRPPRLPRPRPRPDMLPRP	-0.125
RRIRLRPPRLPRPRPRPNNIPRP	-0.559
RRIRWRPPRLPRPRPRPMNCPRP	0.0143
RRIRVRPPRLPRPRPRPYISPRP	-0.0821
RRIRTRPPRLPRPRPRPEGCPRP	0.214
RRIRKRPPRLPRPRPRPFRIPRP	-0.0356
RRIRCRPPRLPRPRPRPLIQPRP	-0.457
